Measurements as given in a protein production outcome set (Wang et al. 2014).

experiment: label from the status in PepcDB records

Row | Sequence | protein production
1 | MLLALLSLGTWPAVLTLLERRGRLPQHTYLDYSITNLLAAIIIAFTFGQIGSTKPDSPNFITQLAQDNWPSVMFAMAGGIVLSLGNLSTQYAWALVGLSVTEVITSSITVVIGSTLNYFLDDKINKAEILFPGVACFLIAVCLGSAVHRSNADDNKAKLRDFETAKQEASGPSTEIGTNSSKDLETNVTTKPKEGTARFLIELENTRAIKVFGKRKIIGLAITFFAGLCFSLFSPAFNLATNDQWNRLKQGVPKLVVYTAFFYFSVSCFIIALILNVVFLYYPVLGLPKSSFKAYLNDWNGRYWAFLAGFLCGFGNGLQFMGGQAAGYAAADSVQALPLVSTFWGVVLFGEYRRSSRKTYLLLFCMLFMFISAVAVLMASSGHRK | failed
2 | MLLEGLLFVLAAGIFTAIVCGFGTLPFFFVDEISDRVTVALWGLAGGIMLFASLFGFIFEGLRDGTVFEVGAGLVVGVVVVVVADRIITGYEFEPRDIPDADFRKLVLIVGVLTVHSFPEGVALGVAFADLGIEGDLVLAGLAIPGLAIFITAAISIQNIPEGLAVAIPLHTYGIANWKIFGWAVFSSIPQPIGAGIAYVFVTTAREFLPFGFGFASGAMIFLVLHDIFPEGLDHGSDLPGHGRRELLVGIAVGVAIMLPVMLLTE | failed
3 | MLLGVIPVLAILLLGFNIHLLVKERRYKKSWISFSMLGLNGLLFVAFTFFLLVYMAGFVTITTIPPFVYWFLIMLGFIIEGMSLYKKYVPGQMTAAAIHLFVVLPTIFSIGIVLLLVAIIELIVAMMNGTGGHPVPRNKQTTTP | failed
4 | MLLHGTNRSLRTGLRARGRGSTGARGTLAVSHAAGPSSHSLTLHSCALLPYTLHAHAFFPCAQTNMASSKKAIYAAILGNFAIAVTKFLGAAVSGSSAMLAEGIHSLVDTGNGGLLLLGLRRSKRPPDENHPYGYGKSLYFYTLVVAVLIFGLGGGISLYEGILHTLDPGHGGASTASVLGVTVGGLMLNTVVLGAAIVFEGLALRTALQEFKKQRGDTPFFEAIVTSKDPTTFTVVFEDTAALAGLVVALVGIHLASLLHMPVIDGIASIIIGLILCGVAAFLIWESKKLLIGEAAAPEIRDDIRRMAHDDADIASVERLLTMHMGPRALLLNMDLRFRDDLDANTVEAAVDRLERAIRKAHPSIRYIFVEAGSIARTRASDSGASAAGGPPS | failed
5 | MLLHLSTWQEVEAYLQQSKGIIFPIGSTEQHGPTGLIGTDAICAEAIAAGVGDATGAIVGPTINVGMALHHTAFPGTISLRPSTLIQVVRDYVTCLAKAGFSKFYFINGHGGNIATLKAAFSETYAHLEDLQIANAQQVQCQVANWFMCGSVYKLAKELYGDQEGSHATPSEVALTQYVYPEAIKQAPLSPEVASGHRIYSAADFRVRYPDGRMGSNPGLATPEHGKQFYDLAVKELSNGYLEFVNAD | not failed
6 | MLLIFFKKYEQSDIMRKLFLLSILMIGVIVAFAGCVEESKTTTQLQQTTQSESQKAETQPKLGVNVVRYAETFKLYPHWDEGYCVVADSVGNKFVLVEGNAKAPNISDGKIIKVPVKRIVTDFYCPIISAADILNAYHHTIVGAPKYAVEKSPKLKELFDEGKVVDIGSPSKGVNYELIVNLTPDIVFLGDWKSEDVVEEKLKELGVTVSRFYTYQEPTYMGRVEWIKFAAAFWGSNAYKKADKWFENVVKVRENILKKVQNVTNEPTVVIFSWSKTKNMPGIYGNDSYYSKMIAEFKGKNVFDDYNRGYQYVDKETFYERAMNADVVILIWFYGDVKTKEDLLKINPNFAEFKAFKTGRFYVSHPDYYVWEARDPAGYMMDFAKMIHPELFGGDDDLKYYYKIK | failed
7 | MLLQANRGLGLSAHIIDHCNLILKFPEGTNSTWYNAQFKVFEALEFKYNVCEAVLLWEQYRNMTTVLTREYLDVRPDGWLDYAAMRIAQLGADKCYNRTLCEEHLNVILPAKPPFHPRQFHKCAVVGNSGDLLKTEFGEEIDSHDAVFRDNEAPVNEKYAKYVGVKRDFRLVVRGAARNMIKILNGSDNEVLIIKSVTHRDFNEMIKRIPNPVYLFQGIVLRRGAKGTGMKSIELALSMCDIVDIYGFTVDPGYTEWTRYFSTPRKGHNPLQGRAYYQLLECLGVQITC | failed
8 | MLLRRRLFVLCILILTITAVQSFVHVLSGDGLSALDLALTAVFVPLAAWLAQSFCTLTAGALMIATQRFSWRRRRDELADIASGLVDSLPRVAIVMPVYNEDSGRVFAGVAAMRDELRALGVAKRFDVFILSDSTDGDNWLAEEEAWDSERHRVGDSPRLFYRRRFRNIKRKTGNIGQFVERHGAAYGYMVVLDADSLMSGEAIWVLTRRMDAERRTALIQAPPKLIMGDTPFSRMLQFAGDVYGPLSSAGLAFWAGGEGNYWGHNAIIRVDAFAACCGLPALPGRAPLGGDILSHDFVEAALLRRAGWKVRIAWDLGGSYEEPPPTMEDFMVRDRRWCQGNMQHGRILFARGLHGVSRSHLLIGIMSYVTSPLWLIFLILSGMQAWTLARAKAVYFQQGVPWATWPISREEEAAYLLAGTLGMLFLPKIWGLLLAIFHGPTRRAHGGGLALVGGFFLENLISALVAPIMMIRHSQFVVSILTGAKVDWKPQRRTADKGNLRVALASYKDVMVIGIAAVAFVLWAAPSLGVWLSPVLAGLLGAPFLAMALGDPDLGAALRRRGLLVIPEEITPPSVLTRMEERLAARPPTAEAPESRFSRVILDPGTNARHRALIQATGEAPTAPVEVMERAVGLAIHLGPEALGKDERKALLECPERLEQLHVACWARRLEDRGGVAPG | failed
9 | MLLSFFLINSNGEVIIEKSWKTEHTRRVCDLFWQEILKVSSPEELAPLLHFPKFTIVHIYSCGVFLVATVRKTLQSTFALELLHHLVDTFVDYFGEFNEHAIKENFVTVYEIIEEVLDHGFPFTVDIASLKELVPPPSLLSRVLGSVTGSSLSLKDISDWNSRKKVSWRNPNIRYAHNEIFVDIVEEVSVVLNSKGQCIHSGISGSIVVNCRLSGMPELALHLNESSIAKHSFVHPCVRYGRFIREGIISFVPPDGVFQLLKYQTWKAPYIPVTLEPQYSVDKERKHGRLQLTLDIRGCGGKPCEEMMISIPFHHATNITNLNVTVGTVRYDSQIQVCPI | failed
10 | MLLSKKSEYKTLSTVEHPQYIVFCDFDETYFPHTIDEQKQQDIYELEDYLEQKSKDGELIIGWVTGSSIESILDKMGRGKFRYFPHFIASDLGTEITYFSEHNFGQQDNKWNSRINEGFSKEKVEKLVKQLHENHNILLNPQTQLGKSRYKHNFYYQEQDEINDKKNLLAIEKICEEYGVSVNINRCNPLAGDPEDSYDVDFIPIGTGKNEIVTFMLEKYNLNTERAIAFGDSGNDVRMLQTVGNGYLLKNATQEAKNLHNLITDSEYSKGITNTLKKLIGFMRRK | not failed
11 | MLLSPNLLAEGQSRYISDNVFLYLLNGPGTDYRILGSIEAGQPITLQGETQGDYSKIVDHKGREGWVQTNLISSTPSFREQVSTLTNELNEAKAKLAEVLNSTGNQTDEVAELKAQLAEAQTMLAKANQERENLKMAVDHSAQETQFALWREGGIIAAAGLVVGVILVYLPRPQRRNKKRWMLEHHHHHH | failed
12 | MLLSYLIYGLRNGFMVTLGGIAGFVVGAIAAFMAVPLVSGWVTDSGWRLTATVGAAVVLIALGHGLGTMIGRKVRHTVRIKPLHAVDRLIGGVVSVVVAALVMSMLAFSISSLGVPFVSQQLAESRVIRYIDDLTPTPVKSTMAQLRSTVIGDGIPKLIEGIGPVTPVPVPNESTDTPALNQAAESVLKIAGTAFECGQNQTGSGFVVSPGRVVTNAHVVAGVSQPVVEVPDGGALPGRVVYFDSQRDIAVLAVDGLQSSPLPLSADLPAGSSAAFAGYPHGGPFQSKPATVQGISTILVPDIYGNNPSPEQVYKLAGDVQPGNSGGPLLTMQGQVAGLIFAKTTTDAALGFALTMADLEPVAAQAPGLSNPVSAGQCTRK | failed
13 | MLLSYVYKLNPSLKQAETMERWLHLLRLQYNFRVRERTEAYEQAKAPVMGNYCILQTQAECCPLTCSVSKGALYGNPWSTKGKKRSPLAQQDANLVDLKKERPWYGEICYHVLQQMLKQVDTAFVRFFKGLGKYPKTKRRGKLRSFTYPTGDVGFKGNKVRLPGLGWMRFFQSRPFPLGFKIRSTTVRKKANGFYISVLLQDDTVPQASASQQIQTALGVDLGIKKLISLSTGETIANPRFYKQMERKRSRLNWAANRKVLGSRRRQKAYQQIAQLEQKVTNQREDYQWKIAHNLVKRFDLIVFENLNVQGMMARCKPKQDESGKYLRNGQSAKSGLNKAIADAAWGSLKLKVKILSERAGVLVHEVKPNFSSQECSECGYISPTNRDKEKFLCEHCGHHADADIDAAKVILKRGLSELGINLDAVSGVPRKQDKSTSKEPVARQGISTALAVEPGNPHQVEERLSN | failed
14 | MLLTIFSILAILCLVLYFYCMVILHLKNKGVYHPMTHAVSDYGIGQNKSYFQLAGLANTFRNLFLILSLIFWKYSFSFKKEAVLLLILAIIGYAGVALFPTDIEGSKRTVKGIIHLLFAILQFTALAIFIFNVTEVLKPLNATLFLIASYIKIVVEVGLYGLVIALFLPFVKKYFGLFERLFLYSSNLYILLLCVMMIRY | failed
15 | MLLVMGAHESGLDRARLQSLYEQLVATNEDETEKLAASGHSTGLVASEWARFLAPFDFGYRLVALQRESKRVAAALTRALYGIDTSGASEHDPLWAVEHRVLPVPVTDRLLFCEMRFLLVLALSRRLWMRLERVDPLGQENPFPRDAEIIERVEDLARQSRERLALLAERSPEALNAGKQEAHDCIEDLRTKETRAAEQVAGFAQALGDAALLEKVWHALVDEIAQNRQLNHALLQTLCQWVLMLIGADTEVPSSASCSDE | not failed
16 | MLLYMRFTENFERAKKEALMSLEIALRKGEVDEDIIPLLKKINSIENYFTTSSCSGRISVMEMPHFGDKVNAKWLGKWHREVSLYEVLEAIKKHRSGQLWFLVRSPILHVGAKTLEDAVKLVNLAVSCGFKYSNIKSISNKKLIVEIRSTERMDVLLGENGEIFVGEEYLNKIVEIANDQMRRFKEKLKRLESKINALNR | not failed
17 | MLMLEREKLARLIKKRSLKVADEPVFKLSSGKLSRYYVDLKQITFDPEGDYLIGKAMYELVKEFNPDACGGLTLGADPIAYAIAFVSLMDSNPIKPFVVRKEPKGHGMKRQIEGLLNPGERVAVLEDVVTTGSSALKAVKACREYGLEVIGVFAVVDREEGGRENIEKEGIPLYSLFKLSELL | not failed
18 | MLNDQEVLSMSSVSLSPLFRRSIGFDRLNDLFDYAMQSETPNYPPYNIEKDGENNYRILIASAGFDQDELRIHLENQVLTISGQPDSEQVDKNIEYLHKGIARRAFKLSLRLDEHIEVQQADYENGLLKIELQRIIPEEKMPRQIPIGQSKSIKNIESSKIVNS | failed
19 | MLNEIVVFFSILVSSWNIYNSALSFYGLTWRVNQKIEYSDKTFSILVPAKNEEKVLGRLLDRLINQEYDKSKYEIIVVEDGSTDRTFQICKNYEENYDNVRCVKLDKSNVPNGKSRALNYAMKLAKFDIIGVFDADTFPRLDVLSYVSGSFDSDNVVAVQGKLIPINVRESIIARFASLEELFNEYSIGGRARFGLFVPLEGTCTFVKKSIIEEMGGWNEYSLTEDLDLSVKLTSAGYKIMYNPNVVAWREVASSLRWLIKQRLRWYRGHFEISLSMPKKIDPRIFDGILLIGTPIFMLMNLVNYSLVLIYQTPLFVVTMVIVSTATLLSFITAVGISRKHLIEYQYSILSLIYMNFVMLLNVTAVFLEIVRVPRVWIKTERSGKISVPEV | failed
20 | MLNHPTHERLIELGLTGMAKAFEEQRRSPDLEALPFEDRIGLLVDREAAERDTRRLTTRLKIAALRQTACVEDVDLRTPRGIDRAVFAKLVEGRWIDRHENLLVTGATGLGKSWLACALGHKACRDNRSVLYHRVPRLFEALALARGDGRYARLLKSLGRAQLLILDDWGLSVLTAAERRDLLEILEDRHGRASTIVTSQLPVDTWHGAIGDPTVADAILDRLVHNAHRLQLTGESMRKRSAKTITLDGQPEH | failed
21 | MLNKLMWLTGKAQEDWIEKILHLRQKIWPDYQRIKNDTLFKLYSHYPLYQWLSHYNGEVVAVINSLPVALDQSLDNLPQEGLNWVLSHLESTTPLTQSNYLAAVSVTVNPAYQRLGLSKLLLNRLKASAQEAQYKALIVPARPSQKENYPLISLEDYLKWKRVDNTIFDPWLRVHAQLGGKIAYPCQRSRVITANVAQWEQWLGHPLLQTGQYLVKGGLNPITINKEKDIGIYIEPNVWVIHDL | failed
